The subject of assay [1] is HIV LTR. Put plainly: HIV LTR transactivation by Tat C-terminal deletion mutants (triple plasmid transfection, Dual-Glo luciferase). Format: cell-based. As to conditions: HEK293 cells, 24 h post transfection, full length Tat72 exon-1 set to 100%, mean (standard deviation). The protocol: Activity is expressed in % with respect to the activity achieved by full length Tat72 exon-1 set to 100%. Shown data are mean values [n 4] with indicated (standard deviation).
Tat-mediated transactivation was determined by triple plasmid transfection of HEK293 cells with pEF-T, a Tat expression plasmid, LTR-FLuc, a HIV LTR-controlled firefly luciferase reporter plasmid and pEF1-RLuc, a EF1α promoter driven Renilla luciferase reporter plasmid. Luciferase reporter activities were assessed 24 h post transfection using the Dual-Glo luciferase assay [Promega]. The measured HIV LTR luciferase data were normalized by Renilla luciferase data retrieved from the pEF1-RLuc plasmid. LTR activity is expressed as percentage of wild type exon-1 Tat72 activity.

Assay [2] deals with MT4-LTR-GFP cells. Put plainly: Titration of tat protein variants on latent HIV LTR-GFP reporter cell line (flow cytometry). Format: cell-based. Details: unit not given here. As to conditions: overnight. How it is done: MT4-LTR-GFP cells were incubated overnight with different Tat variants at the indicated concentration [μg/ml]. LTR activation was determined by flow cytometry.
In general terms: A flow cytometer gives signals particle by particle.

The test system of assay [3] is latent HIV. In words: Ex vivo activation of latent HIV from primary CD4+ T cells of HIV-infected individuals (gag RNA QPCR). It is filed as cell-based, HIV-1. As to conditions: for % Activity (PHA): PHA set to 100%; for % Activity (PMA): PMA set to 100%. The protocol:
Activation of latent HIV from primary CD4^+ T cells by overnight incubation with different Tat proteins. Indicated numbers represent HIV activation in percentage to reference compounds PMA and PHA set to 100%. The shown % increase compared to PMA/PHA is statistically significant (p<0.01).
CD4^+ T cells were isolated from 200 ml whole blood using CD4 microbeads (Miltenyi Biotec) according to manufacturer's protocol. Blood originates from HIV-infected individuals under long-term HAART with undetectable plasma virus. Ten to twenty replicates of cell pools plated at 1×10^6 CD4^+ T cells/well were incubated overnight with compounds or mock controls (DMSO/PBS). Total RNA was isolated from each replicate using the Magmax 96 Total RNA isolation kit (Ambion) following the manufacturer's protocol. Duplicate cDNA reactions were performed on each RNA replicate using SuperScript III First-Strand Synthesis kit (Invitrogen) according to the manufacturer's protocol. Quantitative real-time PCR (QPCR) was conducted on each cDNA applying gag-specific primers and the nucleic acid detection dye Sybr Green I [Invitrogen]. Standard curves were generated using cDNA synthesized from in vitro transcribed RNA. The detection limit of the QPCR assay was determined to be within 1-10 copies/reaction. Cycle threshold (ct) values 40 were excluded from the analysis. The Wilcoxon rank sum test was used to calculate the statistical significance of the relative HIV-1 gag RNA copy number between different conditions.

Assay [4] deals with HIV LTR. Put plainly: HIV LTR activation by T66 fusion proteins (triple plasmid transfection of HEK293 cells, Dual-Glo luciferase). Format: cell-based. How it is done:
Triple plasmid transfection of HEK293 cells with pEF-T (Tat expression plasmid), LTR-FLuc (HIV LTR-controlled firefly luciferase reporter plasmid) and pEF1-RLuc (EF1α promoter driven Renilla luciferase reporter plasmid). Luciferase reporter activities were assessed 24 h post transfection using the Dual-Glo luciferase assay [Promega]. The measured HIV LTR luciferase data were normalized by Renilla luciferase data collected from the co-transfected pEF1-RLuc signal. LTR activation is either expressed as fold increase over cell control or as percentage of T66 activity.

Regarding “1-57: first 57 N-terminal amino acids of wild-type tat, SEQ ID No 1; minimal reactivation domain (MEPVDPRLEPWKHPGSQPKTACTNCYCKKCCFHCQVCFMTKALGISYGRKKRRQRRR; Human immunodeficiency virus 1) [Tat 1-57]”, the “% Tat72 activity” value in assay [1] was 40.2 (±2.3) %.

In the case of “T60: first 60 N-terminal amino acids of wild-type tat, SEQ ID No 2 (MEPVDPRLEPWKHPGSQPKTACTNCYCKKCCFHCQVCFMTKALGISYGRKKRRQRRRAHQ; Human immunodeficiency virus 1) [Tat T60]”, in assay [1], the “% Tat72 activity” value is given as 77.2 (±10.8) %. The LTR activation in assay [2] (Tat 30 μg/ml) was determined as 28.5; in assay [2] (Tat 40 μg/ml), 33.4; in assay [2] (Tat 50 μg/ml), 87.0; in assay [2] (Tat 60 μg/ml), 92.1; in assay [2] (Tat 70 μg/ml), 95.2; in assay [2] (Tat 80 μg/ml) it was 95.8. This molecule also showed an LTR activation in assay [2] (Tat 100 μg/ml) of 93.3. The “% Activity (PHA)” value in assay [3] (Donor 1, overnight incubation) was 328%; in assay [3] (Donor 3, overnight incubation), 196%; in assay [3] (Donor 5, overnight incubation), “ND/254%”. Besides, the “% Activity (PMA)” value in assay [3] (Donor 1, overnight incubation) is reported as 405%; in assay [3] (Donor 3, overnight incubation), 213%.

B1: T66 (protein)
chain: MEPVDPRLEPWKHPGSQPKTACTNCYCKKCCFHCQVCFMTKALGISYGRKKRRQRRRAHQNSQTHQ
modifications: Human immunodeficiency virus 1
Turning to B1, in assay [1], the “% Tat72 activity” value is reported as 92.2 (±12.7) %. Also, the LTR activation in assay [2] (Tat 30 μg/ml) was found to be 45.7; in assay [2] (Tat 40 μg/ml), 53.8; in assay [2] (Tat 50 μg/ml) it was 87.0; in assay [2] (Tat 60 μg/ml) it was 88.7; in assay [2] (Tat 70 μg/ml) it was 87.6; in assay [2] (Tat 80 μg/ml), 93.9. Also, the LTR activation in assay [2] (Tat 100 μg/ml) is 94.5. In addition, the “% Activity (PHA)” value is recorded as 680% in assay [3] (Donor 1, overnight incubation); 986% in assay [3] (Donor 2, overnight incubation); 487% in assay [3] (Donor 3, overnight incubation); “ND/479%” in assay [3] (Donor 4, overnight incubation); “ND/636%” in assay [3] (Donor 5, overnight incubation). Also, the “% Activity (PMA)” value in assay [3] (Donor 1, overnight incubation) came to 838%; in assay [3] (Donor 3, overnight incubation), 530%. The “HIV activation ex vivo compared with reference compounds” value in assay [3] (patient-derived latently infected CD4 cells, versus PHA, PMA and SAHA) is on record as “exceeded by far the reactivation achieved by reference compounds”. The molecule further gave an RLUC in assay [4] (EF1α promoter driven Renilla luciferase (normalisation signal), HEK293, 24 h post transfection) of 267. The molecule also had an FLUC in assay [4] (HIV LTR-controlled firefly luciferase, HEK293, 24 h post transfection) of 15437. Also, in assay [4] (firefly luciferase normalized by Renilla luciferase), the FLUCnorm came out at 37049. The molecule further displayed a Fold in assay [4] (fold increase over cell control) of 26. The “% T66” value in assay [4] (percentage of T66 activity) was found to be 100%.

B2: T72: full length exon 1 Tat [1-72 aa], contains all domains essential for trans-activation (protein, UniProt P04608 1-72, looked up, fragment)
chain: MEPVDPRLEPWKHPGSQPKTACTNCYCKKCCFHCQVCFITKALGISYGRKKRRQRRRAHQNSQTHQASLSKQ
As to B2, the LTR activation stood at 18.6 in assay [2] (Tat 30 μg/ml); 47.2 in assay [2] (Tat 40 μg/ml); 60.4 in assay [2] (Tat 50 μg/ml); 76.3 in assay [2] (Tat 60 μg/ml); 88.8 in assay [2] (Tat 70 μg/ml); 93.8 in assay [2] (Tat 80 μg/ml). In assay [2] (Tat 100 μg/ml), this molecule displayed an LTR activation of 93.7.

B3: T86: Tat protein T86; full length tat protein is 86-101 aa (protein, UniProt P04608 1-86, looked up)
Protein Tat: MEPVDPRLEPWKHPGSQPKTACTNCYCKKCCFHCQVCFITKALGISYGRKKRRQRRRAHQNSQTHQASLSKQPTSQPRGDPTGPKE
For the molecule B3, the “% Activity (PHA)” value in assay [3] (Donor 4, overnight incubation) is reported as “ND/436%”; in assay [3] (Donor 5, overnight incubation) it was “ND/408%”.

Source of the values: patent publication US11098085B2, “Use of a HIV derived accessory protein for the reactivation of latent HIV” (Janssen Sciences Ireland Unlimited Company, priority 2014, dated 2021).
